Test [1] concerns the target T1, MIS12 complex (Mis12, Pmf1, Dsn1, Nsl1), wild type, full length (Homo sapiens, UniProt Q9H081 1-205; Q6P1K2 1-205; Q9H410 1-356; Q96IY1 1-281).
T1 construct: Mis12, subunit of human MIS12C; Pmf1, subunit of human MIS12C; Dsn1, subunit of human MIS12C; Nsl1, subunit of human MIS12C; The DS tag on Pmf1 is TEV cleavable; a cleavage is not described; also called MIS12C (WT); wild-type MIS12C; source: High-5 insect cells (baculovirus), purified (Strep-Tactin, Resource S, Superdex 200); copies: + + +
T1 sequence (looked up) 1: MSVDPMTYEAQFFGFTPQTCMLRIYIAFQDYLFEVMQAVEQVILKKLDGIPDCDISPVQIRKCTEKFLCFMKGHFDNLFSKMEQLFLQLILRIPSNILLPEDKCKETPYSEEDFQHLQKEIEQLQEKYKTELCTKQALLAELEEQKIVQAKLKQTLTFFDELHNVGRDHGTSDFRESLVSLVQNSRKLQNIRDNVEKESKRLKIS
T1 sequence (looked up) 2: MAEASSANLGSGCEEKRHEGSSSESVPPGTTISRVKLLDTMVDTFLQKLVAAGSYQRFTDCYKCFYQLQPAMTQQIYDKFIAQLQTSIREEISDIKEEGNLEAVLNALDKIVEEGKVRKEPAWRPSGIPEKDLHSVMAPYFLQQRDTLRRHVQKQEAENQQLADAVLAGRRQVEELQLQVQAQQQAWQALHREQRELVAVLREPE
T1 sequence (looked up) 3: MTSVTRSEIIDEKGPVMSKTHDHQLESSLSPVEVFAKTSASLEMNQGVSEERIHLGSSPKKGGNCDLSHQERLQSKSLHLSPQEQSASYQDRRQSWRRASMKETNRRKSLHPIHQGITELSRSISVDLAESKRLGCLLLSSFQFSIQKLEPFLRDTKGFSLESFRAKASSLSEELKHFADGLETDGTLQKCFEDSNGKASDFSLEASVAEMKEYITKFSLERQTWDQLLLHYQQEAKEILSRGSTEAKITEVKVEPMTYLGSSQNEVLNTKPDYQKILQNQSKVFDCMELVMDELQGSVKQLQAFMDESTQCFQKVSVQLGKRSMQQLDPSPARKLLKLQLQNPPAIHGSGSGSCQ
T1 sequence (looked up) 4: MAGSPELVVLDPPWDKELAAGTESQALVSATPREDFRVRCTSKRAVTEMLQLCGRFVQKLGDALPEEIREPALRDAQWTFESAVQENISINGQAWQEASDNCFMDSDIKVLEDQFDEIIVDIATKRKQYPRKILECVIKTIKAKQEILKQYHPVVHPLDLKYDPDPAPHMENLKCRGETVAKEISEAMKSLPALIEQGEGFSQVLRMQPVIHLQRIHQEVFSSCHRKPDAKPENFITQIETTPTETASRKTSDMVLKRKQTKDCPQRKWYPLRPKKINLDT
The experiment in a line: SEC; MIS12C or MIS12C^Nsl1ΔC mixed with Knl1 2131–2337 or its mutants at 4 µM each; 20 mM HEPES pH 7.8, 150 mM NaCl, 0.5 mM TCEP; Superose 6; fractions on SDS-PAGE. As to conditions: both partners purified. In general terms: SEC sorts molecules by how far they enter the pores of the column.

The target of test [2] is MIS12 complex with Dsn1 residues 6–113 deleted (Homo sapiens, UniProt Q9H081 1-205; Q6P1K2 1-205; Q9H410 1-356; Q96IY1 1-281, 6–113 residues deleted). The test is described as follows: ITC. (ITC needs no label: the signal is the heat of the interaction.)
For test [3], the target named is T2, MIS12 complex (Mis12, Pmf1, Dsn1, Nsl1), wild type, full length (Homo sapiens, UniProt Q9H081 1-205; Q6P1K2 1-205; Q9H410 1-356; Q96IY1 1-281).
T2 chain 1: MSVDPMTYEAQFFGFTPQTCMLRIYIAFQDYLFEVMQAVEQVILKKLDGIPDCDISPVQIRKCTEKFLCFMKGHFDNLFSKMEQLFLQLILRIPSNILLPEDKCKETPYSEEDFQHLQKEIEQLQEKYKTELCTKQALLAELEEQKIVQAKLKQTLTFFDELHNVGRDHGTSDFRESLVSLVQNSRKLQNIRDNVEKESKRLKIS
T2 chain 2: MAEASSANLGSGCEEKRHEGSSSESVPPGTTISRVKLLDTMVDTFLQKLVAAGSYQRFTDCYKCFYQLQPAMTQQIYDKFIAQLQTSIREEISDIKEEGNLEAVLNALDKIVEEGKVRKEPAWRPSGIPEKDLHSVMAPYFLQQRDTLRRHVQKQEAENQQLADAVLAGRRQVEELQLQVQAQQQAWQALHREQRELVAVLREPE
T2 chain 3: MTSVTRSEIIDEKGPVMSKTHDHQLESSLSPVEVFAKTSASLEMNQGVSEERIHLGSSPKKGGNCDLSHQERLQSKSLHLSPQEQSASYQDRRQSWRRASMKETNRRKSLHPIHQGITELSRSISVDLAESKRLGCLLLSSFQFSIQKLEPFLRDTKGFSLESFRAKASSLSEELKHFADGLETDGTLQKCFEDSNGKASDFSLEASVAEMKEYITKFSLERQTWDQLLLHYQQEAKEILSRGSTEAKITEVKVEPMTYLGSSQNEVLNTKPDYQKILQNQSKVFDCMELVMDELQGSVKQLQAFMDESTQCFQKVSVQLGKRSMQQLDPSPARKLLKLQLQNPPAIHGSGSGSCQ
T2 chain 4: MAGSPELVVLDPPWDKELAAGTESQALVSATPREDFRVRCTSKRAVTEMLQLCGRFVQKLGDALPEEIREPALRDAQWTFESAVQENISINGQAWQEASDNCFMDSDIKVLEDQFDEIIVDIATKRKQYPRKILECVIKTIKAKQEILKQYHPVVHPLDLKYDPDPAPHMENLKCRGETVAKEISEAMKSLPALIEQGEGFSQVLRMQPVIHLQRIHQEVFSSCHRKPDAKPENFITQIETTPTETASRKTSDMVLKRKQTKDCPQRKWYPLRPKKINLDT
The test is described as follows: ITC.

In test [4] the target is T1, MIS12 complex (Mis12, Pmf1, Dsn1, …). The experiment in a line: ITC; peptide in the syringe titrated into the MIS12C variant in the cell; 20 °C; 20 mM HEPES pH 7.5, 100 mM NaCl, 1 mM TCEP; single-site binding model; duplicate or triplicate. As to conditions: both partners purified.
Test [5] has as its target T3, MIS12 complex with Dsn1 residues 6–113 deleted (Homo sapiens, UniProt Q9H081 1-205; Q6P1K2 1-205; Q9H410 1-356; Q96IY1 1-281, 6–113 residues deleted).
T3 construct: Mis12, subunit of human MIS12C; Pmf1, subunit of human MIS12C; Nsl1, subunit of human MIS12C; also called MIS12C^Dsn1ΔN; MIS12C^ΔN-Dsn1; source: High-5 insect cells (baculovirus), purified (Strep-Tactin, Resource S, Superdex 200); copies: + + +
T3 sequence (looked up) 1: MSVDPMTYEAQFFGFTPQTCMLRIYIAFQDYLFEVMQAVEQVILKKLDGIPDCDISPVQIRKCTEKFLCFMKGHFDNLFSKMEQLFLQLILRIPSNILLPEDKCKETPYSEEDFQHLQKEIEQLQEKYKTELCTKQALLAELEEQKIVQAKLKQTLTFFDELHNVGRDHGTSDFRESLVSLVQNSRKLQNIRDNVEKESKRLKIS
T3 sequence (looked up) 2: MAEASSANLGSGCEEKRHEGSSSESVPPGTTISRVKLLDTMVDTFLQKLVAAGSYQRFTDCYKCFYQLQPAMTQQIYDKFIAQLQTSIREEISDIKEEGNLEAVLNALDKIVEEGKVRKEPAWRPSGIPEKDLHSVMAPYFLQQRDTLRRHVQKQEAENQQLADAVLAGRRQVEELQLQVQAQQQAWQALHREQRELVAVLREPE
T3 sequence (looked up) 3: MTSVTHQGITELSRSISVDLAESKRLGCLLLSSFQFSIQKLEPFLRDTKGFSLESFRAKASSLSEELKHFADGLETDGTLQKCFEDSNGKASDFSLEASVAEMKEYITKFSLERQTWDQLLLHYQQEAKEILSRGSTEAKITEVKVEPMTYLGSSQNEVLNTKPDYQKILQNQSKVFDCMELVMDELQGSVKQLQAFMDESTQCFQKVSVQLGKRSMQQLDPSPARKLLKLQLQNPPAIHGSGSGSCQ
T3 sequence (looked up) 4: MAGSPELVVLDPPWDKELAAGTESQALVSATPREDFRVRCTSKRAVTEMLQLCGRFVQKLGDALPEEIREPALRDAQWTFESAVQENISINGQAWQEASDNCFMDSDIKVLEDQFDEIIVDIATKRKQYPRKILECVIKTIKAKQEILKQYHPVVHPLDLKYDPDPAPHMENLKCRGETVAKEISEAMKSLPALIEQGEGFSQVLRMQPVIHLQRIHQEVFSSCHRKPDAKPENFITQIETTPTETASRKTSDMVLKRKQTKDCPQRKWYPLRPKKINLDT
The test is described as above. To be noted: both partners purified.

Test [6] deals with T1, MIS12 complex (Mis12, Pmf1, Dsn1, …). The experiment in a line: cryo-EM structure; NDC80C, MIS12C and KNL1C mixed 1:1:1 and run on Superose 6 in 20 mM HEPES pH 8.0, 80 mM NaCl, 1 mM MgCl2, 1 mM TCEP; about 1 mg/ml on UltrAuFoil grids; 3.0 Å (MIS12C heads 3.8 Å). To be noted: both partners purified.

As a reminder, the Kd is the equilibrium constant for the complex coming apart. A low value points to tighter binding.

B1: Knl1 residues 2131–2337, mut2 (S2270R S2272W) (domain or fragment, H. sapiens, UniProt Q8NG31 2131-2337, looked up)
chain: SLSEWDVVEWSDDQAVFTFVYDTIQLTITFEESVVGFPFLDKRYRKIVDVNFQSLLDEDQAPPSSLLVHKLIFQYVEEKESWKKTCTTQHQLPKMLEEFSLVVHHCRLLGEEIEYLKRWGPNYNLMNIDINNNELRLLFRSWAAFAKFEITLFLSAYYPSVPLPSTIQNHVGNTSQDDIATILSKVPLENNYLKNVVKQIYQDLFQD
notes: Knl1, human, residues 2131-2337, RWD-C surface mutant 2; also called Knl1^mut2; KNL1^mut2; source: E. coli BL21 (DE3), purified (Ni-NTA, reverse IMAC, Superdex 75); not shown: His6, N-terminal, cleaved
Take B1: the binding result in test [1] is listed as “binds”.

B2: Dsn1^92–113 auto-inhibitory peptide, wild type (peptide)
peptide: Ac-RRQSWRRASMKETNRRKSLHPIAW-NH2
notes: Ala-Trp added for determination of concentration by absorption at 280 nm; source: synthetic peptide (Cambridge Research Biochemicals)
Take B2: the dissociation constant Kd in test [2] stood at 4.89 µM; in test [3], 214 µM. For the same molecule, the binding result in test [4] is listed as “binds”. The “fold increase in binding against wild-type MIS12C” value in test [5] turned out to be 44 fold.

B3: KNL1 complex (Knl1 residues 1870–2342 with ZWINT) (complex, human)
chain 1: QMESQFLRDTICEESLREKLQDGRITIREFFILLQVHILIQKPRQSNLPGNFTVNTPPTPEDLMLSQYVYRPKIQIYREDCEARRQKIEELKLSASNQDKLLVDINKNLWEKMRHCSDKELKAFGIYLNKIKSCFTKMTKVFTHQGKVALYGKLVQSAQNEREKLQIKIDEMDKILKKIDNCLTEMETETKNLEDEEKNNPVEEWDSEMRAAEKELEQLKTEEEELQRNLLELEVQKEQTLAQIDFMQKQRNRTEELLDQLSLSEWDVVEWSDDQAVFTFVYDTIQLTITFEESVVGFPFLDKRYRKIVDVNFQSLLDEDQAPPSSLLVHKLIFQYVEEKESWKKTCTTQHQLPKMLEEFSLVVHHCRLLGEEIEYLKRWGPNYNLMNIDINNNELRLLFSSSAAFAKFEITLFLSAYYPSVPLPSTIQNHVGNTSQDDIATILSKVPLENNYLKNVVKQIYQDLFQDCHFYH
chain 2: MEAAETEAEAAALEVLAEVAGILEPVGLQEEAELPAKILVEFVVDSQKKDKLLCSQLQVADFLQNILAQEDTAKGLDPLASEDTSRQKAIAAKEQWKELKATYREHVEAIKIGLTKALTQMEEAQRKRTQLREAFEQLQAKKQMAMEKRRAVQNQWQLQQEKHLQHLAEVSAEVRERKTGTQQELDRVFQKLGNLKQQAEQERDKLQRYQTFLQLLYTLQGKLLFPEAEAEAENLPDDKPQQPTRPQEQSTGDTMGRDPGVSFKAVGLQPAGDVNLP
notes: Knl1, human, 2,342-residue protein, residues 1870-2342; ZWINT, human, constitutive partner of Knl1; Amplified from cDNA; also called Knl1–ZWINT; source: High-5 insect cells (baculovirus), purified (His-tag column, Resource Q)
B3: the binding result in test [6] is “binds”.

(Values after publication PMC11189301, “Structure of the human outer kinetochore KMN network complex” (Nature Structural & Molecular Biology, 2024).)
